Substitutions are numbered along the chain they refer to. Names and notes keep the numbering of the source.
B1: EmrE S107C mutant devoid of wild-type Cys residues (C39S, C41S, C95S, S107C) (natural protein)
chain: MNPYIYLGGAILAEVIGTTLMKFSEGFTRLWPSVGTIISYSASFWLLAQTLAYIPTGIAYAIWSGVGIVLISLLSWGFFGQRLDLPAIIGMMLISAGVLIINLLSRCTPH
B2: EmrE (wild type) (natural protein)
chain: B1 chain with S39C, S41C, S95C, C107S

Tests used:
cross-linking = target: the molecule itself; experiment: cross-linking
solution NMR = target: the molecule itself; experiment: solution NMR

Protein	stoichiometry N (cross-linking)	binding result (solution NMR)
B1	2	–
B2	–	binds
